# Laboratory results published in article PMC5476288 (PLoS Pathogens, 2017).
# B1: GST-ERRα fusion protein (natural protein, UniProt P11474 1-423, looked up)
# chain: MSSQVVGIEPLYIKAEPASPDSPKGSSETETEPPVALAPGPAPTRCLPGHKEEEDGEGAGPGEQGGGKLVLSSLPKRLCLVCGDVASGYHYGVASCEACKAFFKRTIQGSIEYSCPASNECEITKRRRKACQACRFTKCLRVGMLKEGVRLDRVRGGRQKYKRRPEVDPLPFPGPFPAGPLAVAGGPRKTAAPVNALVSHLLVVEPEKLYAMPDPAGPDGHLPAVATLCDLFDREIVVTISWAKSIPGFSSLSLSDQMSVLQSVWMEVLVLGVAQRSLPLQDELAFAEDLVLDEEGARAAGLGELGAALLQLVRRLQALRLEREEYVLLKALALANSDSVHIEDAEAVEQLREALHEALLEYEAGRAGPGGGAERRRAGRLLLTLPLLRQTAGKVLAHFYGVKLEGKVPMHKLFLEMLEAMMD
# notes: also called estrogen-related receptor α
# Target: T1, Flag-IRF3 (human, UniProt Q14653 1-427)
# T1 construct: not shown: Flag, N-terminal, kept
# T1 sequence (looked up): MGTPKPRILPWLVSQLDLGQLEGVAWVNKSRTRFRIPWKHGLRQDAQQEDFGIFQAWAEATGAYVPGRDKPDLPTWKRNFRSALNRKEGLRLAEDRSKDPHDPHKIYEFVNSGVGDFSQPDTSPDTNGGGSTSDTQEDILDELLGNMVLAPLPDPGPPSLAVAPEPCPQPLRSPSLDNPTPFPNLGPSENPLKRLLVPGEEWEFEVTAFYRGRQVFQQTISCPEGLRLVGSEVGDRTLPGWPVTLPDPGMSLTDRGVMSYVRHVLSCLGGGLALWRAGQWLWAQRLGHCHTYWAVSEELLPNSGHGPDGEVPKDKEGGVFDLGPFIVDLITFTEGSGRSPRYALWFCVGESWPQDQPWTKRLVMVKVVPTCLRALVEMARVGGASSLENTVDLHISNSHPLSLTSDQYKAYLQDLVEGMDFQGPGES
# Assay: pull-down; lysates of 293T cells with ectopic Flag-TBK1 or Flag-IRF3 incubated with GST or the GST-ERRα fusion protein
# Conditions: one partner purified
binder,measurement,value
B1,binding result,binds
